This passage reports Kd results from paper PMC9170038, “Crowdsourced RNA design discovers diverse, reversible, efficient, self-contained molecular switches”.

B1: Eterna 7728774 (Exclusion - Theophylline A) (ssRNA)
RNA: AUCACAGUGAUGUUGUGAUAUGAUUCAGAUACCAGACUAGUGCUAGUCCCUUGGCAGCUGAACUCAGCAGCACCACUAGCACUCU
B2: Eterna 11304 (Exclusion 2) (ssRNA)
RNA: UCGGCGCGAGGAUAUACGGUUGCUUGGUAGGGUCGUGGCGUACAUGAGGAUCACCCAUGUAGAAGGCGCGCCGC
B3: Eterna 1109 (Exclusion - Theophylline A) (ssRNA)
RNA: UCGGCGGAGUGAUGUUCCUAUGUCCAAGAUACCAGUCUAUGAACGGACCCUUGGCAGCUUCCAUUAGGUUACUAUUUAGACUCAU
B4: Eterna 7616965 (Same State - Arginine A) (ssRNA)
RNA: UACAUGAGGAUCACCCAUGUAUGUAUCGAAGGAGCGCGUGUAAACGCAGGUAGGUCGCGAACAUGAGGAUCACACAUGAGGAUCA
B5: Eterna 7708488 (Same State - Arginine A) (ssRNA)
RNA: UAUACGAAGCAGUGAUGUUGCUUAUGAGAAGGAGCGCACGAAAGUGCAGGUAGGUCGCUCAGCCAUGUGGACGAAAACGUCCACA
B6: Eterna 6388885 (Inverted Exclusion NG 1) (ssRNA)
RNA: UUAUUUUUACAGAAGGUUUAAUAAUAUGUAUGAGAAGGAUAUGUAACAUGAGGAUCACCCAUGUUUUAUUUAUAUGAGGAUCAU
B7: Eterna 7612252 (Exclusion - Arginine B) (ssRNA)
RNA: ACGUAAUGCAGAAGGAGCGUCUGAUUUUAACAUGAGGAUCACCCAUGUAAUAUUUAUGGUAGACAGGUAGGUCGCUGAAGUACGA
B8: Eterna 7754737 (Exclusion - Tryptophan A) (ssRNA)
RNA: CGCUUUGCGUCCGGUAGUGAUGUUACCAAGCGAGGACCGGUACGGCCGCCACUCGAGUGACAGACGUACUGGUAUCACCCGCUUU
B9: Eterna 1103 (Exclusion - Theophylline A) (ssRNA)
RNA: AGUGACGAGUGAUGUUCGUGAACACUGGAUACCAGCAGUCUUAUCUGCCCUUGGCAGCCAACGGGAACCGAAUGUUAAGACCUGU
B10: Eterna 7748347 (Exclusion - Theophylline B) (ssRNA)
RNA: UUUUAGGUAUCUGAUACCAGAGAAAAUAUAUGUAGUGAUGUUAUAUACAAAAUAAUUAAGCUCCCUUGGCAGCAGUUUUAAUUUU
B11: Eterna 5987116 (Exclusion 5) (ssRNA)
RNA: UUAGGAUCAGGAUAUGAUGUUUUAAACAUGAGGAUCACCCAUGUAGAUCCUGAUUCAACAUCAGAAGGGAUAAUUU
B12: Eterna 7769703 (Exclusion - Tryptophan A) (ssRNA)
RNA: AAACAUCACUGGGAGUGAUGUUCUCAGUGACGAGGACCGGUACGGCCGCCACUCGCGAGAGAACUAGUCUAGACUUGACUGCAUU
B13: Eterna 7678688 (Same State - Tryptophan A) (ssRNA)
RNA: AACACUCUGGGAGUGAUGUUCUCAAAUAACCGAGGACCGGUACGGCCGCCACUCGGAAAAGAGUGAGUCCUACGAAAAGUAGGAC
B14: Eterna 7625640 (Exclusion - Theophylline B) (ssRNA)
RNA: UAUAUUGUGAUGGAUACCAGCAGAGAAAACGUUUAUCCUAACAUGAGGAUCACCCAUGUAUGCCCUUGGCAGCUGUUGUGGUAUA
B15: Eterna 6433253 (Small Loop Same State NG 3) (ssRNA)
RNA: CGUUUAUAUAUGGGUUUAUAUUAUGAGGAUAUCAAUAUUUAAUACAUGAGGAUCACCCAUGUUACUGAGAAGGCAUAAUUAACG
B16: Eterna 7619949 (Exclusion - Theophylline A) (ssRNA)
RNA: CGCAACCCUAAGGGAUUGUGGUUAUUAGAUACCAGUAUGAUGCAAUACCCUUGGCAGCUAAUACAUGAGGAUCACCCAUGUUGCG
B17: Eterna 6391458 (Small Loop Exclusion NG 1) (ssRNA)
RNA: ACAUGUUUUGUAGGAUAUCACUAGUUGUGUUAUAUAUUUGUUAUAAUGUAUUGAGAAGGACAUUUACAUGAGGAUCACCCAUGU
B18: Eterna 7727526 (Same State - Tryptophan A) (ssRNA)
RNA: GACGGGCAGUGAUGUUGCCGGUCUCUUGGACGAGGACCGGUACGGCCGCCACUCGAUCUGAUGCGAGAAUUGUAUCUUUUAAUAA
B19: Eterna 6122884 (Exclusion NG 3) (ssRNA)
RNA: CGAUAACAUAGUUAUCCGUAACGGACAUGAGGAUCACCCAUGUAGGAUAUGUUACUAAACUAGUAACAGAAGGACAUGAGUCUU
B20: Eterna 7688897 (Exclusion - Tryptophan B) (ssRNA)
RNA: ACGAUCAUGUCGGCCGCCACUGAGAGUAGUGAUGUUACUUUUAUGUUUUAGUUAUAAUAUUUGAACAGGACCGGGACAUGUUCGU
B21: Eterna 7641374 (Exclusion - Arginine A) (ssRNA)
RNA: GACAUGAGGAUCACCCAUGUUUUCUAUGAAGGAGCGUCGGAAAUGACAGGUAGGUCGCAUGGUAGGACUUGUAUCUUGUAUGUAG
B22: Eterna 7691660 (Exclusion - Tryptophan B) (ssRNA)
RNA: AGAUUCGACACGGCCGCCACUUGUGGUGGAUUAUCCUAUGUAAGACAUGAGUGAUGUUCAUGUACAAGGACCGGGUGUUGAGUCU
B23: Eterna 1281 (Exclusion - Tryptophan B) (ssRNA)
RNA: GAGAAUCUCACGGCCGCCACUCACCUGUUAAUUGACAUCGACGGCCUCGACCAGUGAUGUUGUGUGAGGACCGGGUGUCUCGUGU
B24: Eterna 7697880 (Same State - Tryptophan B) (ssRNA)
RNA: AACAGCAAUGCGGCCGCCACUUCGAGGUCAGUGAUGUUGACAGAAUUAAAUAAAGAUCCCAAGAGGAGGACCGGGCAGUGCUGUU
B25: Eterna 7684651 (Exclusion - Tryptophan A) (ssRNA)
RNA: AACUUAAUUUAUAAGCAGUGAUGUUGCUCACGAGGACCGGUACGGCCGCCACUCGAUCGGACUUAGGUCUUCAAUUAUUUCAUUA
B26: Eterna 6056021 (Exclusion 3) (ssRNA)
RNA: GGGCCCGGAGGAUAUACAUGAGGAUCACCCAUGUAGGGCCCGGGUAUUCCCGGGUUUUGUAGAAGGCCGGGCCC
B27: Eterna 7689816 (Same State - Arginine A) (ssRNA)
RNA: GCGAACAUUCGCAGUGAUGUUGCGACGGAAGGAGCGCGUGAAAACGCAGGUAGGUCGCCGACAUACUUAAUUUUACAGUGUUCGC
B28: Eterna 6445724 (Inverted Small Loop Same State NG 1) (ssRNA)
RNA: AACCUAAAACAGAAGGCCAGCUACAUGAGGAUCACCCAUGUCGAAUCAUGGAGGAUAUGUUGUAAUUUACUCGCAGAUGAGUGC
B29: Eterna 7653720 (Same State - Theophylline B) (ssRNA)
RNA: UGUAUGUGAUUUGAUACCAGACCAGCUGGUGGUACCUGAGGAACACCCAGGUAGGUUUGGGUCCCUUGGCAGCAAAUCGCAUACU

Some results are limits rather than exact numbers.

The target of this data set is MS2 coat protein, dlFG mutant (Escherichia phage MS2, UniProt P03612, del68-81insG). The data set is described as follows: 4 mM Mg2+; no ligand; RNA-MaP array; 100 mM Tris-HCl pH 7.5, 80 mM KCl, 4 mM MgCl2, 0.1 mg/mL BSA, 1 mM DTT, 0.01 mg/mL yeast tRNA, 0.01% Tween-20; protein 1.5 nM to 3 uM; 37 C (Table S3). The settings on record: chain copies: 2; label: tethered by stalled RNA polymerase.
As for B1, the Kd was > 3000 nM.
The molecule B2 came in with a Kd of 17.3 nM. That is a double-digit nanomolar value.
With B3, the Kd was > 3000 nM.
Regarding B4, the Kd is 24.5 nM. That is a double-digit nanomolar value.
For B5 the value was > 3000 nM; for B6, 10.7 nM; for B7, 15.4 nM.
On to B8, for which the Kd is > 3000 nM.
For B9, the Kd is > 3000 nM.
In the case of B10 it was > 3000 nM.
B11 yielded a Kd of 15.1 nM. In other words, the double-digit nanomolar range.
B12: the Kd is > 3000 nM.
In the case of B13, the Kd is > 3000 nM.
In the case of B14 it was 44.2 nM; in that of B15, 12.1 nM.
As for B16, binding was characterised by a dissociation constant (Kd) of 13.8 nM.
B17 yielded a Kd of 8.7 nM.
For the molecule B18, the Kd is > 3000 nM.
B19: the Kd came to 37.2 nM.
In the case of B20 it was > 3000 nM.
Regarding B21, the affinity, expressed as Kd, was 14.5 nM. This lies in the double-digit nanomolar range.
In the case of B22 it was > 3000 nM; in that of B23, > 3000 nM; in that of B24, > 3000 nM.
On to B25, for which the Kd is > 3000 nM.
B26 came in with an equilibrium dissociation constant (Kd) of 15 nM. In other words, the double-digit nanomolar range.
In the case of B27 it was > 3000 nM.
For the molecule B28, the Kd is 35.5 nM. This lies in the double-digit nanomolar range.
The molecule B29 gave a Kd of 35.5 nM. That is a double-digit nanomolar value.

In general, Kd refers to the constant that tells how readily two partners part at equilibrium. The low end stands for higher affinity, the high end for lower affinity.
